According to patent US12460006B2, “Antibodies against integrin alpha 11 beta 1” (Momenta Pharmaceuticals, Inc., priority 2019, dated 2025):
Residue numbers refer to the chain shown, from its start. “Also recorded” adds a separate entry of the source.

T1: I domain of α11β1 (Homo sapiens, UniProt Q9UKX5)
T1 construct: An in-house generated I domain of α11β1 was used; made in house
T1 sequence (Q9UKX5 164-345 limits assumed): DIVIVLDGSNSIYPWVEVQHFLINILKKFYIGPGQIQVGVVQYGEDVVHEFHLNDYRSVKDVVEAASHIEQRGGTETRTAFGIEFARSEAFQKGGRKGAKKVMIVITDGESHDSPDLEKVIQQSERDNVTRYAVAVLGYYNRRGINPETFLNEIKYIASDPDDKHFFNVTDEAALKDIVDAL

B1: 40G10H11: rat anti-α11β1 mAb; VH SEQ ID NO: 157, VL SEQ ID NO: 158 (antibody, V domains shown)
VH: MDIRLSLGFLVLFIKGDQCAVQLVESGGGLVQPGRSLKLSCAASRITFTDYYMAWVRQAPTKGLEWVATISSDGGDTFYRDSVKGRFTISRDNAKSTLYLQMVSLRSEDTATYYCSTDRGAQFGYWGQGTLVTVSS
VL: MAPVQLLGLLLIWLPAMRCDIQMTQSPSFLSASVGDRVSINCKASQNVHENLNWYQQKLGEAPKRLIYNTNNLQTGIPSRFSGSGSGADYTLTISSLQPEDFATYFCLQHNAFPYTFGPGTKLELK
B2: 79E3E3: rat anti-α11β1 mAb; VH SEQ ID NO: 145, VL SEQ ID NO: 146 (antibody, V domains shown)
VH: MDWLWNLLFLMVVAQSAQAQIQLVQSGPEVKKPGESVKISCKASGYTFTDYAMNWVKQAPGNGLKWMGWINTQTGKPTYADDFKQRFVFSLETSARTTYLQINNLNIEDTATYFCTRLGTGNTKGFAYWGQGTLVTVSS
VL: MESQTHVLISLLLCVSGTCGDILINQSPASLTVSAGERVTMSCKSSQSLLYSENNQDYLAWYQQKPGQFPKLLIYGASNRHTGVPDRFTGSGSGTDFTLTISSVQAEDLADYYCEQTYRYPFTFGSGTKLEIK
B3: 8H8E9: rat anti-α11β1 mAb; VH SEQ ID NO: 149, VL SEQ ID NO: 150 (antibody, V domains shown)
VH: MAVLVLLLCLVTFPSCALSQVQLKESGPGLVQPSQTLSLTCTVSGFSLTSNSVSWVRQAPGKGLEWMGAIWSGGSTDYNSALKSRLSISRDTSKSQVFLKMNSLQTEDTAIYFCTRSHWEPFDYWGQGVMVTVSS
VL: MESQTQALISLLLWVYGTCGDIVMTQSPFSLAVSEGEMVTINCKSSQGLLSSGNQKNYLAWYQQRPGQSPKLLIYYASTRQSGVPDRFIGGGSGTDFTLTISDVQAEDLADYYCLQHYSYPPTFGSGTKLEIK
B4: 6E5C11: rat anti-α11β1 mAb; VH SEQ ID NO: 151, VL SEQ ID NO: 152 (antibody, V domains shown)
VH: B3 VH with K24R, S54T, A59P, G73D, A81T, N102S
VL: B3 VL with F29L, M38T, I41M, G48S, L50F, R65K, G91S, A106T, S119N
B5: 18E10F10: rat anti-α11β1 mAb; VH SEQ ID NO: 155, VL SEQ ID NO: 156 (antibody, V domains shown)
VH: MDIRLSLVFLVLFMKGVQCEVQLVESGGGLVQPGRSLKLSCAASRFTFSDYNMAWVRQAPKKGLEWVATIYHDDSGSYYRDSVKGRFTISRNNAKSTLYLQMDSLRSEDMATYYCARHNNGFDYWGQGVMVTVAS
VL: MKWPVRLLVLFFWIPASGGDVVMTQTPVSLPVRLGGQASISCRSSQSLVHSNGNTYLHWYLQKPGQSPQLLINRVSNRFSGVPDRFSGSGSGTDFTLKINRVEPEDLGDYYCLQSTHFPLTFGSGTKLETK
B6: 8-P20: mouse anti-α11β1 mAb; VH SEQ ID NO: 105, VL SEQ ID NO: 106 (antibody, V domains shown)
VH: KVMLVESGGALVKPGGSLKLSCVASGFTFSNYAMSWVRQTPEKRLEWVATISSGGYYTYYPDSVKGRFTISRDNARNTLFLQMSSLRSEDTAMFYCAREDDYGRYSYTMDYWGQGTSVTVSS
VL: DVVMTQTPLSLPVSLGDQVSISCRCSQSLVHSNGNTYLHWYLQKPGQSPQLLIYKISNRFSGVPDRFSGSGSGTDFTLKISRVEAEDLGVYFCSQSTHVPYTFGGGTELEIK
B7: 8-J17: mouse anti-α11β1 mAb; VH SEQ ID NO: 113, VL SEQ ID NO: 114 (antibody, V domains shown)
VH: QVQLQQSGAELAKPGASVKMSCKASGYTFTNYWMHWVKQRPGQGLEWIGYINPNNGYTEYNQRFKDKATLTADRSSTTAYMQLSSLTSEDSAVYYCARSDIITTDYWGQGTTLTVSS
VL: B6 VL with V19A, C25S, H31Y, Q50K, I56V, Y101W, E108K

Molecular target: T1, I domain of α11β1
Experiment: ELISA binding to in-house generated I domain of α11β1
Settings: not given
Procedure: 0.25 μg/mL of target antigen (recombinant human or mouse α11β1) was plated in a 96-well plate over night at 4° C. Plates were washed (PBS with 0.1% Tween-20), blocked (PBS with 2% BSA and 0.05% Tween-20) for 1 hour at room temperature and incubated with a range of antibody concentrations for 1 hour at room temperature. Subsequently, plates were washed and incubated with biotinylated anti-rabbit/mouse/human IgG in a 1:1000 dilution buffer and incubated for 1 hour at room temperature. After washing the plates, Streptavidin HRP was added at 1:200 in dilution buffer and incubated for 1 hour at room temperature. Ultra TMB ELISA substrate solution was added and the plates incubated for 5 minutes on a plate shaker. The reaction was stopped by adding stop solution to each well and plates were read at 450 nm.
22 Data was also collected to determine whether antibodies of interest bind to the I domain of α11β1. An in-house generated I domain of α11β1 was used. […] Mouse antibodies 10-F23, 10-L15, 7-O8, 6-A12, 9-G05 and 9-E16 and rabbit antibodies 7-H12 and 2-D3 were also tested for binding against the in-house generated α11031 domain. FIGS. 3A and 3B show graphs illustrating binding data from exemplary mAbs.

Row | Molecule | I-domain binder
1 | B1 | not found to be an I-domain binder; also recorded: neither of the antibodies was found to be an I-domain binder
2 | B2 | found to be an I-domain binder

Same assay, conditions: ELISA

Row | binding to I domain of α11β1 (high, medium, low) | Molecule
3 | medium | B3
4 | low | B4
5 | high | B2

Same assay, conditions: Yes/No

Row | I Domain binding | Molecule
6 | No | B1
7 | No | B3
8 | No | B4
9 | Yes | B2
10 | No | B5
11 | No | B6
12 | No | B7

Tested on: human pulmonary fibroblasts (HPFs)
Experiment: FACS antibody binding to human pulmonary fibroblasts
Settings: binding Yes/No
Procedure: (§1) Human Pulmonary Fibroblasts (ScienCell) were cultured in complete Fibroblast Growth Medium (ScienCell) until 80% confluent in T-150 flasks. Cells were washed and harvested using Accutase. Cells were seeded into T-150 flasks at 7,500 cells/cm^2 in complete FGF and cultured for 72 hours. Cells were then washed and starved in serum reduced medium for 24 hours. After starvation, cells were treated with TGFβ-1 (R&D Systems) for 72 hours. Cells were harvested using Accutase and seeded in 96-well conical bottom plates. Cells were blocked with Heat Inactived Fetal Bovine Serum (Gibco) for 30 minutes at 4° C. Cells were then incubated with anti-α11 antibodies at the doses described in each figure for 30 minutes at 4° C. A human anti-α11 antibody (Creative BioLabs) was included as a positive control as well as the appropriate IgG isotype negative controls. Cells were washed twice and incubated with PE conjugated secondary antibodies specific to the IgG class of the anti-α11 antibodies being tested for 30 minutes at 4° C. Cells were washed twice and fixed in 1% PFA for 30 minutes. Cells were acquired on a FACS Verse […]. Data were analyzed by gating on single cells and determining the geometric Mean Fluorescence Intensity (gMFI) in the PE channel for each sample.
(§2) Binding to a physiologically relevant primary human cell type was also tested. Human pulmonary fibroblasts (HPF) and TGFβ treatment were used to induce a fibroblast-to-myofibroblast transition (FMT), giving rise to myofibroblasts (MF). […] Additionally, HPFs express α11 and α2β1, other collagen binding receptors, which means that HPFs can be to test cross-reactivity of antibodies of interest.

Row | HPF FACS | Molecule
13 | No | B2
14 | No | B6
15 | No | B7

Tested on: myofibroblasts (MF)
Experiment: FACS antibody binding to myofibroblasts
Set-up: species or system human
Settings: binding Yes/No
Procedure: as §1, §2

Row | MF FACS | Molecule
16 | Yes | B2
17 | Yes | B6
18 | Yes | B7

Tested on: CHO-K1 cells expressing human α11
Experiment: Cell adhesion inhibition (xCelligence), type I collagen
Type: cell-based
Settings: CHO-K1 hu α11 cells
Procedure: 0.6×10^6 cells/mL were incubated with each antibody at a range of concentrations for 20 minutes at 37° C. E-Plate VIEW 96 PET plate coated with 100 ng/mL type I collagen or PBS overnight at room temperature was blocked in 3% BSA for 1 house at room temperature. After washing the plate with PBS, cell and antibody mixture was added to the wells and the plate was places into an xCelligence machine. Cell adhesion was recorded over 6 hours. The time point of maximum cell adhesion was used for comparison relative to control.
A CHO-K1 hu α11 cell line was used to assess the ability of mAbs to block α11β1-mediated binding to type I collagen. […] In the “Untreated” condition, cells were plated on type I collagen but no antibody was added and in the “Uncoated” condition, cells were seeded onto BSA-coated wells containing no type I collagen. Statistics were performed using one-way ANOVA followed by Dunnett's multiple comparisons test. […] Therefore, it is possible that these mAbs bind on an α11β1 domain that keeps the integrin in a low or intermediate affinity state. […] Nine human mAbs were also tested for their ability to inhibit the binding of human CHO-α11 cells to type I collagen.

Row | Molecule | inhibition of cell adhesion to type I collagen
19 | B1 | strongly inhibited cell adhesion; also recorded: inhibited cell adhesion
20 | B2 | strongly inhibited cell adhesion
21 | B6 | did not block cell adhesion
22 | B7 | did not block cell adhesion; also recorded: had effect on ligand binding

Same assay, conditions: Yes/No

Row | Molecule | Inhibition of CHO-K1 adhesion to collagen
23 | B1 | Yes
24 | B3 | Yes
25 | B4 | No
26 | B2 | Yes
27 | B5 | Yes
28 | B6 | No
29 | B7 | No

Tested on: Human Pulmonary Fibroblasts
Experiment: Fibroblast-to-Myofibroblasts Transition (FMT), αSMA expression
Type: cell-based
Settings: TGFβ-induced FMT
Procedure: Human Pulmonary Fibroblasts (ScienCell) were cultured in complete Fibroblast Growth Medium (ScienCell) until 80% confluent. Cells were washed and harvested using Accutase. Cells were seeded onto tissue culture-treated 96 well plates at 20,000 cells/well in complete Fibroblast Growth Medium. After 24 hours, cells were washed and starved in serum reduced medium for an additional 24 hours. After starvation, cells were treated with TGFβ-1 (R&D Systems) with or without anti-α11 antibodies. A polyclonal rabbit anti-human α11 antibody was used as a positive control. Appropriate IgG isotype controls were also included. After 48 hours, cells were harvested, fixed, permeabilized and stained with AlexaFluor488 Labeled Anti-αSMA (α-smooth muscle actin) (Invitrogen). Cells were acquired on a FACS Verse (Benton Dickson) to determine expression levels of αSMA. Data were analyzed by gating on single cells and determining the geometric Mean Fluorescence Intensity (gMFI) in the FITC channel for each sample. gMFI for each sample was normalized to the untreated control and presented as % inhibition.
In addition to the binding abilities described above, it is important for an anti-α11β1 antibody to inhibit the fibroblast-to-myofibroblast transition (FMT). It is now appreciated that myofibroblasts are a heterogeneous cell population, existing in different activation states, with the main function of producing and contracting collagen extracellular matrix (ECM). FMT is a multi-step event that is controlled by a changing mechanical environment in tissues undergoing repair. TGFβ is one of the potent factors that potentiates this process and alpha smooth muscle actin (αSMA) is one of the main markers that becomes overexpressed when fibroblasts are undergoing the transition to becoming myofibroblasts. The presence of αSMA enhances fibroblast contraction and guides myofibroblast activation through an intracellular feedback loop. Because αSMA is the main molecular marker of myofibroblasts, the ability of the novel anti-α11β1 mAbs to inhibit αSMA expression in TGFβ-induced FMT was tested.

Row | Molecule | inhibition of αSMA expression / FMT
30 | B1 | significantly inhibited αSMA expression
31 | B2 | failed to decrease αSMA expression
32 | B7 | only inhibited FMT

Same assay, conditions: Yes/No

Row | Molecule | Inhibition of FMT
33 | B1 | Yes
34 | B3 | Yes
35 | B4 | Yes
36 | B2 | No
37 | B5 | Yes
38 | B6 | No
39 | B7 | Yes
